Article PMC10689493 (2023)
Read-outs that look alike come from different tables or passages of the source.

B3: CC40.8 mAb (antibody, V domains shown)
VH: EVQLLESGGGLVQPGGSLRLSCAASGFTFSSYVMTWARQAPGKGLEWVSAISGTGYTYYADSVKGRFTVSRDNSKNTLFLQMSSLRAEDTAVYYCAITMAPVVWGQGTTVTVSS
VL: SYELTQPPSVSVSPGQTARITCSGDALPKRYAYWYQQKSGQAPILVIYEDKKRPSGIPERLSGSKSGTVATLTISGAQVEDEADYYCYSTDSSGNHAVFGGGTQLTVL
B5: DH1057.1 mAb (antibody, V domains shown)
VH: EVQLVESGTEVKKPGASVKVSCKTSGYIFTNYYIHWVRQAPGQGLEWMGIFNPNGGGTSYAQKFQGRITLTGNTSANTGYMVLRSLTSEDTAVYYCARDPRTSGDNDGFDMWGQGTKVTVSS
VL: VLTQSPATLSLSPGERATLSCRASQSLSSYNYLAWYQQKPGQAPRLLIYAASKRATGIPARFSGSGSGTDFTLTISSLEPEDFAVYFCQQRSNRPPAWTFGQGTKVEIK
B6: S2P6 mAb (antibody, V domains shown)
VH: EVQLVQSGAEVKKPGASVKVSCKASGYTFTSQYMHWVRQAPGQGLEWIGIINPSGVHTSYAQKFQGRVTLTRDTSTSTLYMELSSLRSEDTAVYYCARGSPKGAFDYWGQGTLVTVSS
VL: not shown

What was measured:
Test in all cases: SPR
S2P6 mAb [1] = molecular target: B6
DH1057.1 mAb [2] = molecular target: B5
S2P6 mAb [3] = molecular target: B6; remark: listed apart in the source
DH1057.1 mAb [4] = molecular target: B5; remark: listed apart in the source
FP-10 epitope scaffold = molecular target: FP-10 epitope scaffold
FP-2 epitope scaffold = molecular target: FP-2 epitope scaffold
[5] = molecular target: S2hlx-Ex17 epitope scaffold
[6] = molecular target: S2hlx-Ex15 epitope scaffold
[7] = molecular target: S2hlx-Ex20 epitope scaffold
CC40.8 mAb = molecular target: B3
S2P6 mAb [8] = molecular target: B6; remark: listed apart in the source
DH1057.1 mAb [9] = molecular target: B5; remark: listed apart in the source
S2P6 mAb [10] = molecular target: B6; remark: listed apart in the source
DH1057.1 mAb [11] = molecular target: B5; remark: listed apart in the source
S2P6iGL = molecular target: S2P6iGL
DH1057UCA = molecular target: DH1057UCA
CC40.8iGL = molecular target: CC40.8iGL
S2hlx-4 epitope scaffold = molecular target: S2hlx-4 epitope scaffold
S2hlx-1 = molecular target: S2hlx-1
S2hlx-8 = molecular target: S2hlx-8
S2hlx-13 = molecular target: S2hlx-13
[12] = molecular target: S2hlx-15 epitope scaffold
S2hlx-14 = molecular target: S2hlx-14

B1: S2hlx-7 epitope scaffold (designed binder)
chain: MTSTFDRVATIIAETADIPRETITPESHAIDDLGIDELDFLDIAFAIDKAFGISLPLFKWELDVYFGSATTEQYFVLKNLAARIDELVAAKGA
B1 showed a Kd (S2P6 mAb [1]) of 0.2 nM, a Kd (DH1057.1 mAb [2]) of 0.6 nM and a koff (S2P6 mAb [3]) of 0.0025 s⁻¹. It also gave a koff (DH1057.1 mAb [4]) of 0.0026 s⁻¹.

B2: DH1058 mAb (antibody, V domains shown)
VH: QVQLVQSGGGVVQPGRSLRLSCAASGFNFGDFGMHWVRQAPGKGLEWVAVISYEGRNKNHADSVRGRFTISRDNSRNMLYLQMNSLRRGDTAVYYCAKENRDRNYDSWSASYSDYYYGMDVWGQGTTVTVSS
VL: DIVMTQSPSFLSASVGDRVTITCRASQGIDRYLAWYQQKPGSAPKLLIYAASTLQSGVPSRFSGSGSETDFTLTISSLQPDDFATYYCQQLSTYPTITFGQGTRLEIK
With B2 the Kd (FP-10 epitope scaffold) was 0.3 nM, the koff (FP-10 epitope scaffold) was 0.00068 s⁻¹ and the Kd (FP-2 epitope scaffold) was 0.1 nM. The koff (FP-2 epitope scaffold) was 0.00066 s⁻¹.

B3 gave a Kd [5] of 27.1 nM, a koff [5] of 0.061 s⁻¹ and a Kd [6] of 3.4 nM. For the same binder, the koff [6] was 0.0085 s⁻¹, the Kd [7] was 10.6 nM and the koff [7] was 0.011 s⁻¹.

B4: S2hlx-Ex19 epitope scaffold (designed binder)
chain: MNLDSFKEELDDYFKEKIVKEFEKLCKELISKYEVKKPTPSPEIKKICEYLKKKHEELKDKYPEEFVKEIFKKMWEVFKKELSKQLKKLGVTNDGGEKYKIVKEDLNYLVDVIKSLEGLSDLDLNWEEIWN
With B4 the koff (CC40.8 mAb) was 0.02 s⁻¹, the koff (S2P6 mAb [8]) was 0.00033 s⁻¹ and the koff (DH1057.1 mAb [9]) was 0.027 s⁻¹. For the same binder, the Kd (S2P6 mAb [10]) was 1.7 nM, the Kd (DH1057.1 mAb [11]) was 15.5 nM and the Kd (S2P6iGL) was 690 nM. The koff (S2P6iGL) was 0.0018 s⁻¹, the Kd (DH1057UCA) was 3080 nM and the koff (DH1057UCA) was 0.0019 s⁻¹. It also gave a Kd (CC40.8iGL) of 94.1 nM and a koff (CC40.8iGL) of 0.028 s⁻¹.

B5 gave a Kd (S2hlx-4 epitope scaffold) of 4480 nM, a koff (S2hlx-4 epitope scaffold) of 0.037 s⁻¹ and a Kd (S2hlx-1) of 353 nM. The koff (S2hlx-1) was 0.0091 s⁻¹, the Kd (S2hlx-8) was 175 nM and the koff (S2hlx-8) was 0.0015 s⁻¹. For the same binder, the Kd (S2hlx-13) was 176 nM, the koff (S2hlx-13) was 0.0032 s⁻¹ and the Kd [12] was 0.6 nM. It also gave a koff [12] of 0.0014 s⁻¹, a Kd (S2hlx-14) of 404 nM and a koff (S2hlx-14) of 0.018 s⁻¹. For the same binder, the Kd [5] was 12.8 nM, the koff [5] was 0.014 s⁻¹ and the Kd [6] was 1.7 nM. For the same binder, the koff [6] was 0.00037 s⁻¹, the Kd [7] was 48.9 nM and the koff [7] was 0.026 s⁻¹.

B6 was tested, and the Kd (S2hlx-4 epitope scaffold) was 47.7 nM, the koff (S2hlx-4 epitope scaffold) was 0.00048 s⁻¹ and the Kd (S2hlx-1) was 52.8 nM. The koff (S2hlx-1) was 0.0027 s⁻¹, the Kd (S2hlx-8) was 63 nM and the koff (S2hlx-8) was 0.00021 s⁻¹. The Kd (S2hlx-13) was 83 nM, the koff (S2hlx-13) was 0.0017 s⁻¹ and the Kd [12] was 0.7 nM. For the same binder, the koff [12] was 0.0018 s⁻¹, the Kd (S2hlx-14) was 30 nM and the koff (S2hlx-14) was 0.0016 s⁻¹. The Kd [5] was 29.6 nM, the koff [5] was 0.0082 s⁻¹ and the Kd [6] was 6 nM. For the same binder, the koff [6] was 0.0086 s⁻¹, the Kd [7] was 10.7 nM and the koff [7] was 0.00042 s⁻¹.
